The text below walks through data of article PMC10404669, “Vanillyl alcohol oxidase from Diplodia corticola: Residues Ala420 and Glu466 allow for efficient catalysis of syringyl derivatives” (The Journal of Biological Chemistry, 2023).

Substrate in data set [1]: C=CCc1ccc(O)c(OC)c1
Description: steady-state kinetics, purified enzyme, xylenol orange H2O2 assay (KM, Hill fit). Format: biochemical, Diplodia corticola. The settings on record: FAD (covalently bound) catalytic center; pH 7.5; 25.0 °C.

Substrate in data set [2]: CCCCOCc1ccc(O)c(OC)c1
Description: Michaelis-Menten kinetics, purified enzyme, xylenol orange H2O2 assay (KM). The format is biochemical, Diplodia corticola. The settings on record: FAD (covalently bound) catalytic center; pH 7.5; 25.0 °C.

Substrate in data set [3]: CCOCc1ccc(O)c(OC)c1
The description is as above. The note with it: FAD (covalently bound) catalytic center; Ala420 and Glu466 near the substrate (docking); pH 7.5; 25.0 °C. The format is biochemical, Diplodia corticola.

Substrate in data set [4]: COCc1ccc(O)c(OC)c1
The data set is described as above. Format: biochemical, Diplodia corticola. The settings on record: FAD (covalently bound) catalytic center; pH 7.5; 25.0 °C.

Substrate in data set [5]: COc1cc(CO)ccc1O
Described as above. Format: biochemical, Diplodia corticola. The note with it: FAD (covalently bound) catalytic center; pH 7.5; 25.0 °C.

Substrate in data set [6]: CCOCc1ccc(O)c(OC)c1
Described as above. The note with it: FAD (covalently bound) catalytic center; pH 7.5; 25.0 °C. Format: biochemical, Penicillium simplicissimum.

Substrate in data set [7]: COCc1ccc(O)c(OC)c1
The data set is described as above. Format: biochemical, Penicillium simplicissimum. The note with it: FAD (covalently bound) catalytic center; pH 7.5; 25.0 °C.

Substrate in data set [8]: COc1cc(CO)ccc1O
The description is as above. The settings on record: FAD (covalently bound) catalytic center; pH 7.5; 25.0 °C. The format is biochemical, Penicillium simplicissimum.

Substrate in the data set “purified protein”: C=CCc1ccc(O)c(OC)c1
Description: purified protein. The settings on record: FAD (covalently bound) catalytic center; pH 7.5; 25.0 °C. The format is biochemical, Penicillium simplicissimum.

B1: DcVAO (vanillyl alcohol oxidase) (Diplodia corticola) (protein)
chain: MSLSRPLALPPGVSESTFHQFIERITKTTPDVTIVESKDQFPDGGYHEPPSSHDPFYVQDKDHFIASAFVCPRSVDEVQDIVRAAGDFVIPLWPTSLGRNLGYGGAAPRVRGSVVLNLGKHMNRILEVNVEGAYALVEPGVTFEALHNYLVEHNLRDKLWLDVPDLGGGSVLGNTLERGVGYTPYGDHFMMHSGMEVVLANGELLRTGMGALPAPKSETEGVTKLHEEPGNKCWQLFPYGFGPYNDGLFSQSNLGIVTKLGLGLMPNPGGYQSYLITIPGEEDLHKAVEIIRPLRLNNVIQNVPTLRYVLLDAGMMGHKSDYTSSTSPIDEATTDAIAKKLNLGRWNFYGALYGPPEIRTAMWKLIHAAFSAIPGARFFFPDDVADPRAVLHNRHNVLQGIPSYEELRWVDWVPNGAHVAFSPISRISGADAARQVDLAKRRCRDAGFDYMGTFTVGMREMHHIVEIVFDRTDAGQRKRAEALVRGLVDECAALGWGEYRTHLAFMDQIAGTYGWGGGALGRFNERVKEALDPKGILAPGKSGVWGSRFGELKGKL
With B1, the Km is 60 ± 3 µM in data set [1]; 258 ± 27 µM in [2]; 198 ± 19 µM in data set [3]; 263 ± 12 µM in data set [4]; 297 ± 21 µM in [5]. Moreover, the kcat in data set [1] turned out to be 10.3 ± 0.1 s⁻¹; in data set [2], 2.1 ± 0.1 s⁻¹; in data set [3] it was 4.7 ± 0.2 s⁻¹; in [4], 1.9 ± 0.01 s⁻¹; in data set [5], 4 ± 0.1 s⁻¹.

B2: PsVAO (vanillyl alcohol oxidase) (Penicillium simplicissimum) (protein)
chain: MSKTQEFRPLTLPPKLSLSDFNEFIQDIIRIVGSENVEVISSKDQIVDGSYMKPTHTHDPHHVMDQDYFLASAIVAPRNVADVQSIVGLANKFSFPLWPISIGRNSGYGGAAPRVSGSVVLDMGKNMNRVLEVNVEGAYCVVEPGVTYHDLHNYLEANNLRDKLWLDVPDLGGGSVLGNAVERGVGYTPYGDHWMMHSGMEVVLANGELLRTGMGALPDPKRPETMGLKPEDQPWSKIAHLFPYGFGPYIDGLFSQSNMGIVTKIGIWLMPNPRGYQSYLITLPKDGDLKQAVDIIRPLRLGMALQNVPTIRHILLDAAVLGDKRSYSSRTEPLSDEELDKIAKQLNLGRWNFYGALYGPEPIRRVLWETIKDAFSAIPGVKFYFPEDTPENSVLRVRDKTMQGIPTYDELKWIDWLPNGAHLFFSPIAKVSGEDAMMQYAVTKKRCQEAGLDFIGTFTVGMREMHHIVCIVFNKKDLIQKRKVQWLMRTLIDDCAANGWGEYRTHLAFMDQIMETYNWNNSSFLRFNEVLKNAVDPNGIIAPGKSGVWPSQYSHVTWKL
With B2, the Km in [6] turned out to be 86 ± 3 µM; in data set [7] it was 155 ± 5 µM; in [8], 144 ± 10 µM; in the data set “purified protein”, 67 ± 2 µM. For the same protein, the kcat in data set [6] is 2.6 ± 0.02 s⁻¹; in [7], 7.9 ± 0.1 s⁻¹; in data set [8], 6.7 ± 0.1 s⁻¹; in the data set “purified protein” it was 18.7 ± 0.5 s⁻¹.

For orientation: Km means the concentration of substrate that gives half-maximal velocity. By kcat is commonly meant the maximal rate divided by the concentration of active sites.
